Assay results reported in US20020055130.

B1: HA-tagged full length mouse MEKK1 (196 kDa; plasmid MEKK1.cp4, expressed in HEK293 cells) (protein)
chain: MGYPYDVDYASMAAAAGDRASSSGFPGAAAASPEAGGGGGGGGALQGSGAPAAGAAGLLREPGSAGRERADWRRRQLRKVRSVELDQLPEQPLFLAAASPPCPSTSPSPEPADAAAGASRFQPAAGPPPPGAASRCGSHSAELAAARDSGARSPAGAEPPSAAAPSGREMENKETLKGLHKMEDRPEERMIREKLKATCMPAWKHEWLERRNRRGPVVVKPIPIKGDGSEVNNLAAEPQGEGQAGSAAPAPKGRRSPSPGSSPSGRSVKPESPGVRRKRVSPVPFQSGRITPPRRAPSPDGFSPYSPEETSRRVNKVMRARLYLLQQIGPNSFLIGGDSPDNKYRVFIGPQNCSCGRGAFCIHLLFVMLRVFQLEPSDPMLWRKTLKNFEVESLFQKYHSRRSSRIKAPSRNTIQKFVSRMSNSHTLSSSSTSTSSSENSIKDEEEQMCPICLLGMLDEESLTVCEDGCRNKLHHHCMSIWAEECRRNREPLICPLCRSKWRSHDFYSHELSSPVESPASLRAVQQPSSPQQPVAGSQRRNQESSFNLTHFGTQQIPSAYKDLAEPWIQVFGMELVGCLFSRNWNVREMALRRLSHDVSGALLLANGESTGNSGGGSGGSLSAGAASGSSQPSISGDVVEACCSVLSIVCADPVYKVYVAALKTLRAMLVYTPCHSLAERIKLQRLLRPVVDTILVKCADANSRTSQLSISTVLELCKGQAGELAVGREILKAGSIGVGGVDYVLSCILGNQAESNNWQELLGRLCLIDRLLLEFPAEFYPHIVSTDVSQAEPVEIRYKKLLSLLTFALQSIDNSHSMVGKLSRRIYLSSARMVTAVPAVFSKLVTMLNASGSTHFTRMRRRLMAIADEVEIAEVIQLGVEDTVDGHQDSLQAVAPTSCLENSSLEHTVHREKTGKGLSATRLSASSEDISDRLAGVSVGLPSSTTTEQPKPAVQTKGRPHSQCLNSSPLSHAQLMFPAPSAPCSSAPSVPDISKHRPQAFVPCKIPSASPQTQRKFSLQFQRNCSEHRDSDQLSPVFTQSRPPPSSNIHRPKPSRPVPGSTSKLGDATKSSMTLDLGSASRCDDSFGGGGNSGNAVIPSDETVFTPVEDKCRLDVNTELNSSIEDLLEASMPSSDTTVTFKSEVAVLSPEKAENDDTYKDDVNHNQKCKEKMEAEEEEALAIAMAMSASQDALPIVPQLQVENGEDIIIIQQDTPETLPGHTKAKQPYREDAEWLKGQQIGLGAFSSCYQAQDVGTGTLMAVKQVTYVRNTSSEQEEVVEALREEIRMMGHLNHPNIIRMLGATCEKSNYNLFIEWMAGGSVAHLLSKYGAFKESVVINYTEQLLRGLSYLHENQIIHRDVKGANLLIDSTGQRLRIADFGAAARLASKGTGAGEFQGQLLGTIAFMAPEVLRGQQYGRSCDVWSVGCAIIEMACAKPPWNAEKHSNHLALIFKIASATTAPSIPSHLSPGLRDVAVRCLELQPQDRPPSRELLKHPVFRTTW
B2: MEKK1 cleavage fragment C (protein)
chain: GHQDSLQAVAPTSCLENSSLEHTVHREKTGKGLSATRLSASSEDISDRLAGVSVGLPSSTTTEQPKPAVQTKGRPHSQCLNSSPLSHAQLMFPAPSAPCSSAPSVPDISKHRPQAFVPCKIPSASPQTQRKFSLQFQRNCSEHRDSDQLSPVFTQSRPPPSSNIHRPKPSRPVPGSTSKLGDATKSSMTLDLGSASRCDDSFGGGGNSGNAVIPSDETVFTPVEDKCRLDVNTELNSSIEDLLEASMPSSDTTVTFKSEVAVLSPEKAENDDTYKDDVNHNQKCKEKMEAEEEEALAIAMAMSASQDALPIVPQLQVENGEDIIIIQQDTPETLPGHTKAKQPYREDAEWLKGQQIGLGAFSSCYQAQDVGTGTLMAVKQVTYVRNTSSEQEEVVEALREEIRMMGHLNHPNIIRMLGATCEKSNYNLFIEWMAGGSVAHLLSKYGAFKESVVINYTEQLLRGLSYLHENQIIHRDVKGANLLIDSTGQRLRIADFGAAARLASKGTGAGEFQGQLLGTIAFMAPEVLRGQQYGRSCDVWSVGCAIIEMACAKPPWNAEKHSNHLALIFKIASATTAPSIPSHLSPGLRDVAVRCLELQPQDRPPSRELLKHPVFRTTW

Target: recombinant kinase inactive SEK1 (SEK1 K→M)

Protein	phosphorylation of SEK1 K→M by immunoprecipitates (in vitro kinase assay)
B1	When the full length MEKK1 protein was immunoprecipitated by the 12CA5 antibody it had measureable autophosphorylation and activity towards SEK1
B2	a stronger SEK1 phosphorylation signal was detected
